Source: the Immune Epitope Database (IEDB)
Values belong to the sequence of their own block, whether it stands above or below them.

Experiments:
HLA-B*18:01 [1] = test: IEDB peptide-MHC binding, purified MHC/competitive/radioactivity; filed as Kd, often an IC50 or EC50 that approximates it; ≥ and ≤ were set here for values at or beyond the usual limits of such assays
HLA-B*40:01 = test: as above
HLA-B*40:02 = test: as above
HLA-B*44:02 = test: as above
HLA-B*44:03 = test: as above
HLA-B*45:01 = test: as above
HLA-A*33:01 = test: as above; details: source organism: Dengue virus 2 Jamaica/1409/1983
HLA-A*68:01 = test: as above
HLA-B*35:01 = test: as above
HLA-B*07:02 = test: IEDB peptide-MHC binding, purified MHC/direct/fluorescence; filed as Kd, often an IC50 or EC50 that approximates it; ≥ and ≤ were set here for values at or beyond the usual limits of such assays; details: source organism: Homo sapiens
HLA-A*02:01 = test: IEDB peptide-MHC binding, purified MHC/competitive/fluorescence; filed as Kd, often an IC50 or EC50 that approximates it; ≥ and ≤ were set here for values at or beyond the usual limits of such assays; details: source organism: Homo sapiens
HLA-B*18:01 [2] = test: as above; details: source organism: Homo sapiens
HLA-B*27:03 = test: as above; details: source organism: Homo sapiens
[3] = source organism: Mammarenavirus guanaritoense
[4] = source organism: Mammarenavirus machupoense
[5] = source organism: SARS coronavirus Tor2
[6] = source organism: Mammarenavirus choriomeningitidis
[7] = source organism: Dengue virus 2 Jamaica/1409/1983
[8] = source organism: Dengue virus 3 Sri Lanka/1266/2000

Sequence: ADSEITETY
Kd (HLA-B*18:01 [1]; [3]): 1.39 µM | Kd (HLA-B*40:01; [3]): ≥ 37.6 µM | Kd (HLA-B*40:02; [3]): ≥ 77.2 µM | Kd (HLA-B*44:02; [3]): 6.54 µM | Kd (HLA-B*44:03; [3]): 2.77 µM | Kd (HLA-B*45:01; [3]): 17 µM

Sequence: AEWLEMICF
Kd (HLA-B*18:01 [1]; [4]): 0.164 µM | Kd (HLA-B*40:01; [4]): 2.01 µM | Kd (HLA-B*40:02; [4]): 0.0194 µM | Kd (HLA-B*44:02; [4]): 0.0446 µM | Kd (HLA-B*44:03; [4]): 0.0681 µM | Kd (HLA-B*45:01; [4]): 0.0825 µM

Sequence: EEVVENPTI
Kd (HLA-B*18:01 [1]; [5]): ≥ 45.6 µM | Kd (HLA-B*40:01; [5]): 2.73 µM | Kd (HLA-B*40:02; [5]): 4.88 µM | Kd (HLA-B*44:02; [5]): 4.54 µM | Kd (HLA-B*44:03; [5]): 0.778 µM | Kd (HLA-B*45:01; [5]): 1.22 µM

Sequence: FEDQFLPFMS
Kd (HLA-B*18:01 [1]; [6]): 2.39 µM | Kd (HLA-B*40:01; [6]): 3.89 µM | Kd (HLA-B*40:02; [6]): 0.312 µM | Kd (HLA-B*44:02; [6]): 14.6 µM | Kd (HLA-B*44:03; [6]): ≥ 27.2 µM | Kd (HLA-B*45:01; [6]): 3.5 µM

Sequence: FENKTTLPV
Kd (HLA-B*18:01 [1]; [5]): 0.666 µM | Kd (HLA-B*40:01; [5]): 0.115 µM | Kd (HLA-B*40:02; [5]): 0.0253 µM | Kd (HLA-B*44:02; [5]): 17.1 µM | Kd (HLA-B*44:03; [5]): 1.87 µM | Kd (HLA-B*45:01; [5]): 0.851 µM

Sequence: FTNMEAQLIR
Kd (HLA-A*33:01): 0.108 µM | Kd (HLA-A*68:01; [7]): 0.0193 µM | Kd (HLA-B*35:01; [7]): 9.88 µM

Sequence: FTNMEAQLVR
Kd (HLA-A*68:01; [8]): 0.0792 µM | Kd (HLA-B*35:01; [8]): 11.8 µM

Sequence: GEDTVWEVQG
Kd (HLA-B*18:01 [1]; [5]): ≥ 70.5 µM | Kd (HLA-B*40:01; [5]): ≥ 29.3 µM | Kd (HLA-B*40:02; [5]): 18.4 µM | Kd (HLA-B*44:02; [5]): ≥ 45 µM | Kd (HLA-B*44:03; [5]): 16.3 µM | Kd (HLA-B*45:01; [5]): 4.03 µM

Kd (HLA-B*07:02): 0.0221 µM | Kd (HLA-A*02:01): ≥ 20 µM | Kd (HLA-B*18:01 [2]): ≥ 20 µM | Kd (HLA-B*27:03): ≥ 20 µM
Sequence: GVRQFSGWM

Sequence: IDFLIMRNL
Kd (HLA-B*18:01 [1]; [3]): 15.2 µM | Kd (HLA-B*40:01; [3]): 15.5 µM | Kd (HLA-B*40:02; [3]): 0.224 µM | Kd (HLA-B*44:02; [3]): 14.5 µM | Kd (HLA-B*44:03; [3]): 16.1 µM | Kd (HLA-B*45:01; [3]): 18 µM

Sequence: KEINLLSQT
Kd (HLA-B*18:01 [1]; [4]): ≥ 77.5 µM | Kd (HLA-B*40:01; [4]): ≥ 34.1 µM | Kd (HLA-B*40:02; [4]): 0.0311 µM | Kd (HLA-B*44:02; [4]): 17 µM | Kd (HLA-B*44:03; [4]): 14.3 µM | Kd (HLA-B*45:01; [4]): 6.69 µM
